Source: patent US8629241B2, “Alpha helical mimics, their uses and methods for their production” (The University of Queensland, priority 2004, dated 2014)
Read-outs that look alike come from different tables or passages of the source. Where a SMILES comes first, the peptide text is derived from it. Bridges are numbered along the chain shown (N, C = ends). [ ]: non-standard residue; d: D form. Orn = NCCC[C@H](N)C(=O)O

Format: physicochemical
Conditions: for percentage helicities: equation 2b with k˜4, assuming 8 has 100% helicity; for θ222/θ208 / [θ]192 / [θ]208 / [θ]222: Table 8; for [θ]192 / [θ]208 / [θ]222: one or more cyclic pentapeptide modules versus linear peptides; for % helicity: fH × 100, [θ∞H]222 = −44000, k = 2.6
Method: Circular Dichroism (CD) was performed on peptides having SEQ ID NOs: 8 to 14 and 18 to 31, using methods described above. The molar elipticities at 222 nm, 208 nm and 190 nm, ratios of elipticities at 222 nm/208 nm and relative helicity are shown in Tables 6 and 7.
Assuming that mean alpha helix content (fH) is linearly related to elipticity at 222 nm, or in our case 215 nm ([θ]obs215), then the equation for calculating helix content is: fH=([θ]obs215−[θ]C)/([θ]∞215−[θ]C) (1) Luo and Baldwin^22 determined that the random coil ([θ]C) and infinite alpha helix ([θ]∞222) molar elipticities are temperature dependent based on the equations: [θ]C=2220−53T (2a) [θ]∞215=(−44000+250T)(1−k/Np) (2b) where T is temperature in degrees Celsius, Np is the number of peptide units, and k is a finite length correction.
CD was performed on peptides having one [SEQ ID NO: 8] or more than one modular macrocycle [SEQ ID NOs: 46 and 47], as compared with corresponding linear peptides, Ac[KARAD]n—NH2 where n=1 [SEQ ID NO: 14], n=2 [SEQ ID NO: 54] and n=3 [SEQ ID NO: 55]. The molar elipticities at 222 nm, 208 nm and 190 nm, ratios of elipticities at 222 nm/208 nm and percentage helicity are shown in Table 8.
CD experiments were performed on a Jasco Model J-710 spectropolarimeter which was routinely calibrated with (1S)-(+)-10-camphorsulfonic acid. Temperature control was achieved using a Neslab RTE-111 circulating water bath. Spectra were recorded in a 0.1 cm Jasco cell between 310-185 nm at 50 nm/min with a band width of 1.0 nm, response time of 2 sec, resolution step width of 0.1 nm and sensitivity of 20, 50 or 100 mdeg. Each spectrum represents the average of 5 scans with smoothing to reduce noise. Peptide samples for CD spectroscopy were dissolved in distilled water (˜1 mg/mL). Each stock solution was diluted to a final concentration of 50 μM in 10 mM sodium phosphate buffer (pH7.4), with or without additives (2,2,2-trifluoroethanol (TFE) or guanidine.HCl). Guanidine.HCl denaturation experiments were performed according to Creighton^105.
1D ^1H NMR spectra were then recorded with presaturation and a relaxation delay (d1) of 30 seconds to allow for full relaxation of peptide and DSS^1H signals to facilitate accurate integration of proton signals with S/N>250:1. This method provides reproducible concentrations within ±2%.
CD data in ellipticity was converted to mean peptide ellipticity using the equation: [θ]=θ/(10×C×Np×1) where θ is the ellipticity in millidegrees, C is the peptide molar concentration (M), 1 is the cell path length (cm), and Np is the number of peptide units (ie. pentapeptides […], 10 & 11 Np=5, 12 Np=4.)
Relative helicities were employed to allow scaling of compounds by dividing the [θ]obs215(8)/[θ]obs215(x) for pentapeptides, and [θ]obs215(24)/[θ]obs215(x) for hexapeptides.

[1] = cyclic hexapeptides 23-31, 10 mM phosphate buffer pH 7.4 at 25° C
[2] = θ215 relative to SEQ ID NO: 24, 10 mM phosphate buffer pH 7.4 at 25° C

Compound | Molar ellipticity at 207 nm [1] | [θ]190 [1] | [θ]215 [1] | θ215/θ207 [1] | percentage helicities [%] | Relative helicity [2] | θ222/θ208 | [θ]192 [degcm^2dmol^−1residue^−1] | [θ]208 [degcm^2dmol^−1residue^−1] | [θ]222 [degcm^2dmol^−1residue^−1] | % helicity [%] | also measured
Ac-(cyclo-2,6)-R[KAAAD]-NH2 (Ac-RKAAAD-NH2; lactam 2-6; SMILES CC(=O)N[C@@H](CCCNC(=N)N)C(=O)N[C@H]1CCCCNC(=O)C[C@@H](C(N)=O)NC(=O)[C@H](C)NC(=O)[C@H](C)NC(=O)[C@H](C)NC1=O) [SEQ ID NO: 23] | −13684 deg.cm^2.dmol^−1.residue^−1 | 39352 deg.cm^2.dmol^−1.residue^−1 | −13537 deg.cm^2.dmol^−1.residue^−1 | 0.99 | 83 | 0.91 |  |  |  |  |  | 
Ac-(cyclo-2,6)-R[KAFAD]-NH2 (Ac-RKAFAD-NH2; lactam 2-6; SMILES CC(=O)N[C@@H](CCCNC(=N)N)C(=O)N[C@H]1CCCCNC(=O)C[C@@H](C(N)=O)NC(=O)[C@H](C)NC(=O)[C@H](Cc2ccccc2)NC(=O)[C@H](C)NC1=O) [SEQ ID NO: 27] | −9087 deg.cm^2.dmol^−1.residue^−1 | 27718 deg.cm^2.dmol^−1.residue^−1 | −8644 deg.cm^2.dmol^−1.residue^−1 | 0.95 | 53 | 0.76 |  |  |  |  |  | 
Ac-(cyclo-1,5)-[OARAD]-NH2 (Ac-[Orn]ARAD-NH2; lactam 1-5; SMILES CC(=O)N[C@H]1CCCNC(=O)C[C@@H](C(N)=O)NC(=O)[C@H](C)NC(=O)[C@H](CCCNC(=N)N)NC(=O)[C@H](C)NC1=O) [SEQ ID NO: 12] |  |  |  |  |  |  |  |  |  |  |  | Relative helicity ([θ]215 relative to SEQ ID NO: 8, 10 mM phosphate buffer, pH 7.4, 25° C): 0; [θ]190 (molar elipticity at 190 nm, 10 mM phosphate buffer, pH 7.4, 25° C): −4613 deg.cm^2.dmol^−1.residue^−1; [θ]207 (molar elipticity at 207 nm, 10 mM phosphate buffer, pH 7.4, 25° C): −2077 deg.cm^2.dmol^−1.residue^−1; [θ]215 (molar elipticity at 215 nm, 10 mM phosphate buffer, pH 7.4, 25° C): 92 deg.cm^2.dmol^−1.residue^−1; θ215/θ207 (ratio of elipticities, 10 mM phosphate buffer, pH 7.4, 25° C): −0.04
CC(=O)N[C@@H](CCCCN)C(=O)N[C@@H](C)C(=O)N[C@@H](CCCNC(=N)N)C(=O)N[C@@H](C)C(=O)N[C@@H](CC(=O)O)C(=O)N[C@@H](CCCCN)C(=O)N[C@@H](C)C(=O)N[C@@H](CCCNC(=N)N)C(=O)N[C@@H](C)C(=O)N[C@@H](CC(=O)O)C(N)=O [SEQ ID NO: 54] (Ac-KARADKARAD-NH2) |  |  |  |  |  |  | 0.21 | −12237 | −8552 | −1836 | 3 | 
SEQ ID NO: 55: linear peptide Ac(KARAD)n-NH2 where n=3 (Ac-KARADKARADKARAD-NH2) |  |  |  |  |  |  | 0.39 | −8024 | −9788 | −3852 | 7 | 
cyclo(1-5, 6-10, 11-15)-Ac-[KARADKARADKARAD]-NH2 (Ac-KARADKARADKARAD-NH2; lactam 1-5, 6-10, 11-15; SMILES CC(=O)N[C@H]1CCCCNC(=O)C[C@@H](C(=O)N[C@H]2CCCCNC(=O)C[C@@H](C(=O)N[C@H]3CCCCNC(=O)C[C@@H](C(N)=O)NC(=O)[C@H](C)NC(=O)[C@H](CCCNC(=N)N)NC(=O)[C@H](C)NC3=O)NC(=O)[C@H](C)NC(=O)[C@H](CCCNC(=N)N)NC(=O)[C@H](C)NC2=O)NC(=O)[C@H](C)NC(=O)[C@H](CCCNC(=N)N)NC(=O)[C@H](C)NC1=O) [SEQ ID NO: 47] |  |  |  |  |  |  | 1.34 | 100811 | −23842 | −31987 | 88 | 
